This is an account of results in US20230312724A1 (KADMON, published 2023).

Experiment [1] concerns the target T1, human B7-H4 expressed on cells (human, UniProt Q7Z7D3 25-282).
T1 construct: Transfected CHO cells or tumor cell lines that carry hB7-H4; also called cellular hB7-H4
T1 sequence: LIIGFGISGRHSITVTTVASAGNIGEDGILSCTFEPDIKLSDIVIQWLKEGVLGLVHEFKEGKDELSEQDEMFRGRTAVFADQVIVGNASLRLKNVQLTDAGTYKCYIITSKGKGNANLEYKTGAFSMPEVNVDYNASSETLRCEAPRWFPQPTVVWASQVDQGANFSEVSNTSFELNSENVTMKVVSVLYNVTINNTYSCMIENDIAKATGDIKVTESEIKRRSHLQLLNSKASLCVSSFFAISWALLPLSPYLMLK
Description: flow cytometry, SK-BR-3 cells. The essentials: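 Binding read on a Guava flow cytometer after two-step staining at 4 °C: serial dilutions of antibody or fusion protein for 1 h, then 1:200 secondary antibody for 30 min in the dark. Cells suspended at 1×10⁶ cells/ml in cold FACS buffer, washed three times between steps.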

For experiment [2], the target named is T2, IgV domain of human B7-H4-Fc (human).
T2 construct: also called hB7-H4 IgV domain
T2 sequence (chain, as listed by the source): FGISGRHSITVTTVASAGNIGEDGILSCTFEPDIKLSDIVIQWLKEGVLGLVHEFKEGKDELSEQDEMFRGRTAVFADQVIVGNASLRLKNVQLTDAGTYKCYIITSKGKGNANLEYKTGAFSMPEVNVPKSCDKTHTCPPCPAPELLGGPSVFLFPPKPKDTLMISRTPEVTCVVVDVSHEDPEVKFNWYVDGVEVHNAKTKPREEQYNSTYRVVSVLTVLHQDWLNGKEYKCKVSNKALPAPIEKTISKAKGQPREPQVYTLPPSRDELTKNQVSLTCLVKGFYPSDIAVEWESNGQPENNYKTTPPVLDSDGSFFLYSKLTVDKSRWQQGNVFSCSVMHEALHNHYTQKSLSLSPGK
Description: ELISA on coated IgV domain of hB7-H4. As to the method: (§1) About 1-2 μg/ml of human or mouse B7-H4-Fc (or his-tagged) was immobilized on ELISA plates (Immuno 2HB, Thermo scientific, cat #3455) at 4° C. overnight. After blocking the plates with 3% PBS+milk, serial diluted antibodies were added to the blocked plates and incubated at RT for 1-1.5 h. After washing the plates with PBS-T (0.05%), horse radish peroxidase (HRP)-conjugated antibody targeting the hFab was added to the plate. Signals were developed by adding 3,3′,5,5′-Tetramethylbenzidine (TMB (followed 1N of H₂SO₄ to stop the reaction. The OD at 450 nm was read by ELISA plate reader (Infinite M1000 from TECAN). GraphPad from Prism was used to plot OD450 vs. antibody concentration curve and to calculate the EC50 values.

In experiment [3] the target is T1, human B7-H4 expressed on cells. Kind of experiment: flow cytometry, MX-1 cells. As for the experimental part: (§2) Cells were harvested, washed once, and then re-suspended to the concentration of 1×10⁶ cells/ml in ice cold FACS Buffer. 25 μl of cell suspension was added to each well of a 96-well round-bottom microliter plate. Serially diluted antibodies or fusion proteins were added to each well and incubated for 1 hour at 4° C. Cells were washed three times by centrifugation at 1500 rpm for 5 minutes, and then stained with secondary antibody (1:200 dilution) for 30 min at 4° C. in the dark. Cells were washed once, re-suspended in 100 μl PBS buffer and then analyzed using Guava Flow Cytometry EasyCyte system.

For experiment [4], the target named is T3, hB7-H4 (soluble human B7-H4, construct not named) (human, UniProt Q7Z7D3 25-259, limits assumed).
T3 construct: also called soluble hB7-H4
T3 sequence: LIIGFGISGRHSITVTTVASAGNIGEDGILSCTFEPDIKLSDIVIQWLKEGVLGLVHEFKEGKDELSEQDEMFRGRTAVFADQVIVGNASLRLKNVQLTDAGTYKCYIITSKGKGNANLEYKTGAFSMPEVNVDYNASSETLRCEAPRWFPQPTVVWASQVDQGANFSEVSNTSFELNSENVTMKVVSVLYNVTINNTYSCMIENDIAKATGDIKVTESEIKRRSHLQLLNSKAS
Kind of experiment: SPR (Biacore).

Experiment [5] deals with T4, IgC domain of mouse B7-H4-Fc (mouse; human).
T4 construct: also called mB7-H4 IgC domain
T4 sequence (chain, as listed by the source): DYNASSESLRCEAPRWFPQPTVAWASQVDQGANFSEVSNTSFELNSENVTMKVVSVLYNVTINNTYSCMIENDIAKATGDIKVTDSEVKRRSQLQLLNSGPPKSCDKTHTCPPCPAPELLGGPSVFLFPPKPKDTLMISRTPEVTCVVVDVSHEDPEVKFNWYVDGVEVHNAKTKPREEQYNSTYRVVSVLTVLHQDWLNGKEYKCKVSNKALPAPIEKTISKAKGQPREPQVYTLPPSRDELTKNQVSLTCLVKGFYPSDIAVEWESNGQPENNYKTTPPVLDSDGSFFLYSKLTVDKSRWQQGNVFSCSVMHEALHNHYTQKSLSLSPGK
Description: ELISA, coated mB7-H4 IgC domain.

The target in experiment [6] is T1, human B7-H4 expressed on cells. Kind of experiment: flow cytometry, SK-BR-3 cells. The source holds these as a separate data set.
The target of experiment [7] is T3, hB7-H4 (soluble human B7-H4, construct …). Kind of experiment: ELISA, hB7-H4. The essentials: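 Direct binding ELISA: immobilized B7-H4-Fc or his-tagged antigen (~1-2 μg/ml, overnight, 4° C), antibody dilution series 1-1.5 h at RT. Readout OD450 after HRP anti-hFab and TMB; EC50 calculated.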
Experiment [8] has as its target T5, IgV domain of mouse B7-H4-Fc (mouse; human).
T5 construct: also called mB7-H4 IgV domain
Kind of experiment: ELISA, coated mB7-H4 IgV domain.

The target of experiment [9] is T6, IgC domain of human B7-H4-Fc (human).
T6 construct: also called hB7-H4 IgC domain
T6 sequence (chain, as listed by the source): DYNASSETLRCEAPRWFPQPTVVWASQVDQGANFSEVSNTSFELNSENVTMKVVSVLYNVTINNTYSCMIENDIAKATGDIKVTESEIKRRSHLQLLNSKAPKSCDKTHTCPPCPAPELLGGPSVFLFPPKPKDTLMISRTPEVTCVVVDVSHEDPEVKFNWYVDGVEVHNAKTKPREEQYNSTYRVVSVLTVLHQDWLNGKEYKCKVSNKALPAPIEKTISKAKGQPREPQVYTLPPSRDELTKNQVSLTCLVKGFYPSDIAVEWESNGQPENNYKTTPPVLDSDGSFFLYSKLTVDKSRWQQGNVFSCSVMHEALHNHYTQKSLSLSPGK
Description: ELISA, coated hB7-H4 IgC domain.

Experiment [10] concerns the target T7, human B7-H4-his (human, UniProt Q7Z7D3 25-259).
T7 construct: also called hB7-H4-his; hB7-H4 his; not shown: his tag
T7 sequence: T3 sequence
Description: ELISA on coated hB7-H4-his. As to the method: as §1

Experiment [11] deals with T3, hB7-H4 (soluble human B7-H4, construct …). Description: ELISA, hB7-H4. As to the method:
as §1
The source holds these as a separate data set.

In experiment [12] the target is T8, human B7-H4-Fc (human).
T8 construct: also called hB7-H4-Fc; hB7-H4 Fc
T8 sequence (chain, as listed by the source): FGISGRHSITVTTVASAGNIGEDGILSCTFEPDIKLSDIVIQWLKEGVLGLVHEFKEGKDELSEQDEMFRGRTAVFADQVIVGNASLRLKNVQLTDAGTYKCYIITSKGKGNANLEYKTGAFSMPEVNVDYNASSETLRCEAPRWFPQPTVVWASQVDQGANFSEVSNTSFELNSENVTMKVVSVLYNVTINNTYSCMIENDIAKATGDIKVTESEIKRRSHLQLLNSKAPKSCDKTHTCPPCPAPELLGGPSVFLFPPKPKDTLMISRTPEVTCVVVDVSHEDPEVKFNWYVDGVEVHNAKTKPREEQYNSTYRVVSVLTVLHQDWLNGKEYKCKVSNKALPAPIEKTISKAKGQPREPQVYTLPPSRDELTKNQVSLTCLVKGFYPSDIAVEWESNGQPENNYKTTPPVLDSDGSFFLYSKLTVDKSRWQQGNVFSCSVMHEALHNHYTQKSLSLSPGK
Kind of experiment: ELISA on coated hB7-H4-Fc. As to the method: as §1

The target of experiment [13] is T8, human B7-H4-Fc. Kind of experiment: SPR (Biacore). The method in brief: (§3)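 Kinetic constants came from a 1:1 Langmuir fit of binding at 25 °C in HBS-EP, pH 7.4. Analyte (100 nM to 0.1 nM) flowed for 180 s, then dissociated for 1000 or 1200 s, over amine-coupled human B7-H4-Fc, human B7-H4-his or mouse B7-H4-Fc surfaces at 50-100 RU.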
Experiment [14] deals with T7, human B7-H4-his. Description: SPR (Biacore). The essentials:
as §3

The target of experiment [15] is T3, hB7-H4 (soluble human B7-H4, construct …). Description: SPR (Biacore). The method in brief:
as §3
The source holds these as a separate data set.

The target in experiment [16] is T9, mouse B7-H4-Fc (mouse; human).
T9 construct: also called mB7-H4-Fc; mB7-H4-hFc
T9 sequence (chain, as listed by the source): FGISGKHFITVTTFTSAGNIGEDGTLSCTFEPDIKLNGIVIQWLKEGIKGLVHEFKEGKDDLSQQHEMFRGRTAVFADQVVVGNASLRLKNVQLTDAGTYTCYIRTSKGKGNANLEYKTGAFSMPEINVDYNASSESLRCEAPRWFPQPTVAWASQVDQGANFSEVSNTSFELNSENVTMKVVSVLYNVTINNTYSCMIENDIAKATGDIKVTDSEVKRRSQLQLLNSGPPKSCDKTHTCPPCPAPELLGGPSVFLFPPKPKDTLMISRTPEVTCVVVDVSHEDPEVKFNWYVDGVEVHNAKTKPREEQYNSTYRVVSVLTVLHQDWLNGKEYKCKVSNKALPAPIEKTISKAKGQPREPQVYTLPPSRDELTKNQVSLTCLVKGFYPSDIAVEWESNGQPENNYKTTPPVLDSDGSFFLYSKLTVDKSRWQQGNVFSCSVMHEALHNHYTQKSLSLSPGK
Kind of experiment: ELISA on coated mB7-H4-Fc. As to the method:
as §1

Experiment [17] deals with T1, human B7-H4 expressed on cells. Description: flow cytometry, MDA-MB-468 cells. As for the experimental part:
as §2

Experiment [18] concerns the target T10, mouse B7-H4-his (mouse, UniProt Q7TSP5 25-257).
T10 construct: also called mB7-H4-his; mB7-H4-His; not shown: his tag
T10 sequence: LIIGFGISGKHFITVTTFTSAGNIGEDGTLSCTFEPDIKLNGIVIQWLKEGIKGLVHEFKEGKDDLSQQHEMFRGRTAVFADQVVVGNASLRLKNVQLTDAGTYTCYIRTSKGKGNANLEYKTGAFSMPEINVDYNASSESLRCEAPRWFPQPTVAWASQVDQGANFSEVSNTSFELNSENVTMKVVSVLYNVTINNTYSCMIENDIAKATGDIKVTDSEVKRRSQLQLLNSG
Description: ELISA on coated mB7-H4-his. As for the experimental part: as §1

Experiment [19] concerns the target T2, IgV domain of human B7-H4-Fc. Description: ELISA, coated hB7-H4 IgV domain.
For experiment [20], the target named is T11, mouse B7-H4 expressed on cells (mouse, UniProt Q7TSP5 25-257).
T11 construct: also called cellular mB7-H4; mB7-H4/CT26
T11 sequence: T10 sequence
Description: flow cytometry, CT26 cells expressing mB7-H4.

Experiment [21] concerns the target T2, IgV domain of human B7-H4-Fc. Description: ELISA, coated hB7-H4 IgV domain. As for the experimental part:
(§4) ELISA experiments were performed to determine binding to hB7-H4-Fc (FIG. 4A), hB7-H4-his (FIG. 4B), hB7-H4 IgV domain (FIG. 4C), and mB7-H4 IgV domain (FIG. 4D). Flow cytrometry experiments were performed to determine binding to CHO cells expressing hB7-H4 (FIG. 4E) or mB7-H4 (FIG. 4F). […] A cross-reactive IgV binding antibody was used as a control.
as §1
The source holds these as a separate data set.

Experiment [22] deals with T10, mouse B7-H4-his. Description: ELISA, coated mB7-H4-his. As for the experimental part: as §1
In experiment [23] the target is T9, mouse B7-H4-Fc. Description: ELISA, coated mB7-H4-Fc. As to the method: (§5) ELISA experiments were performed to determine binding to hB7-H4-Fc (FIG. 3A), hB7-H4-his (FIG. 3B), mB7-H4-Fc (FIG. 3C), and hB7-H4 IgV domain (FIG. 3D). Flow cytometry experiments were performed to determine binding to CHO cells expressing hB7-H4 (FIG. 3E) or mB7-H4 (FIG. 3F).
as §1

For experiment [24], the target named is T11, mouse B7-H4 expressed on cells. Kind of experiment: flow cytometry, CHO cells expressing mB7-H4. As to the method: as §5, §2
Experiment [25] deals with T12, mB7-H4 (soluble mouse B7-H4, construct not named) (mouse, UniProt Q7TSP5 25-257, limits assumed).
T12 sequence: T10 sequence
Description: summary of ELISA and flow cytometry.

In experiment [26] the target is T5, IgV domain of mouse B7-H4-Fc. Kind of experiment: ELISA, coated mB7-H4 IgV domain. As to the method:
as §4, §1
This is another data set of the same source.

Experiment [27] deals with T8, human B7-H4-Fc. Description: ELISA, coated hB7-H4-Fc. As to the method:
as §4, §1

The target of experiment [28] is T4, IgC domain of mouse B7-H4-Fc. Kind of experiment: ELISA, coated mB7-H4 IgC domain (title on the sheet: IgC domain of mB7H4). As for the experimental part: as §1
Experiment [29] deals with T8, human B7-H4-Fc. Description: SPR (Biacore). The source holds these as a separate data set.
Experiment [30] addresses T7, human B7-H4-his. Description: SPR (Biacore). The source holds these as a separate data set.

Where two headings read alike, the source gives them in different places.

T5 sequence (chain, as listed by the source): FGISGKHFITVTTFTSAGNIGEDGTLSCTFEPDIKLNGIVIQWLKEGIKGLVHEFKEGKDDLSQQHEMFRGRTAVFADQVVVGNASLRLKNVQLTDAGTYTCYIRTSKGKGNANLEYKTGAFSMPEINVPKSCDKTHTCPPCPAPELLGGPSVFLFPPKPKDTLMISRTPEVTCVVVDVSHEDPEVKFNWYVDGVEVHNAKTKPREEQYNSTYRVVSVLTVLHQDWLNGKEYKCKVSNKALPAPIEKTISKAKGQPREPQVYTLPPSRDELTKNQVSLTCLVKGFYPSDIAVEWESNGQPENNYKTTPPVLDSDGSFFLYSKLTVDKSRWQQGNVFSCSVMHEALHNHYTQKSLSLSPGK

B1: 3F2/50A10 (antibody, human IgG1, V domains shown)
VH: QVQLVQSGAEVKKPGASVKVSCKASGYTFTAQYMYWVRQAPGQGLEWMGRINPTSGNTVYAQKLQGRVTMTRDTSTSTVYMELSSLRSEDTAVYYCARGINWFDPWGQGTLVTVSS
VL: DIQMTQSPSSLSASVGDRVTITCQASQDISNYINWYQQKPGKAPKLLIYAASRLQSGVPSRFSGSGSGTDFTLTISSLQPEDFATYYCQQSYRSPFTFGQGTKLEIK
B1: the EC50 turned out to be 0.41 nM in experiment [1]; 0.12 nM in experiment [3]; 1.18 nM in [6]; 0.046 nM in experiment [7]; 0.082 nM in experiment [11]; 0.416 nM in [17]. The “EC50 (read off the curve)” value in experiment [2] is about 0.08 nM; in experiment [10] it was about 0.1 nM; in experiment [12], about 0.07 nM; in [19] it was about 0.1 nM. In addition, the dissociation constant Kd came to 0.0454 nM in experiment [4], 0.0433 nM in experiment [13], 0.0155 nM in [14] and 0.0385 nM in experiment [15]. The binding result was “no binding (tested: log 1 nM (10 nM))” in experiment [5]; “no binding (tested: log 1 nM (10 nM))” in experiment [8]; “no binding (tested: log 1 nM (10 nM))” in experiment [9]; “no binding (tested: 10 nM)” in experiment [16]; “no binding (tested: 10 nM)” in experiment [18]; “no binding (tested: log 2 nM (100 nM))” in experiment [20].

B2: 1D3/1D3 (antibody, human IgG1, V domains shown)
VH: EVQLLESGGGLVQPGGSLRLSCAASGFTFNTHAMHWVRQAPGKGLEWVSAISGSGGSTYYADSVKGRFTISRDISKNTLYLQMNSLRAEDTAVYYCARLLGRFGEYGMDVWGQGTTVTVSS
VL: DIQMTQSPSSLSASVGDRVTITCRASRSIYTWLAWYQQKPGKAPKLLIYDASTLQSGVPSRFSGSGSGTDFTLTISSLQPEDFATYYCQQSYSTPYTFGGGTKVEIK
B2: the concentration for a half-maximal effect (EC50) was 18.6 nM in [1] and 0.044 nM in [7]. In addition, the “EC50 (read off the curve)” value in experiment [21] was about 10 ng/mL; in experiment [27] it was about 7 ng/mL. Further, the binding result in experiment [22] is “no binding (tested: axis value -8 (labelled log nM))”; in experiment [23] it was “no binding (tested: axis value -8 (log scale labelled nM))”; in experiment [24] it was “no binding (tested: axis value -7 (log scale labelled nM))”; in experiment [25], “no binding”; in experiment [26], “no binding”; in experiment [28], “no binding (tested: axis value -8 (labelled log nM))”. In addition, the Kd in experiment [15] turned out to be 0.775 nM; in [29] it was 0.805 nM; in experiment [30], 0.551 nM.
